Experiments:
sperm = conditions: added in sufficient concentration and simultaneously with the H2O2; cited from earlier work
bovine sperm [1] = assay: Binding of cholesterol-PEG-catalase to sperm, flow cytometry; type: cell-based; conditions: sperm incubated with 3 mg/ml conjugate at 37° C. for 30 min, unbound removed on Percoll PLUS
Procedure: 1.5 ml of bovine sperm in liquid extender was carefully placed on top of 4 ml of 60%_Percoll™ PLUS (GE Healthcare) column, and centrifugated for 20 min at 700×g at 20° C. The resulting purified sperm pellet was resuspended in non-capacitating media (NCM; see Table 2) containing 0.1 mg/ml of BSA to a cell concentration of 5×10^7 ml. 200 μl of the purified sperm was mixed with an equal volume of 3 mg/ml cholesterol-PEG5000-FITC-catalase, and incubated light protected at 37° C. for 30 min. The unbound cholesterol-PEG5000-FITC-catalase was removed by layering 400 μl of sperm/cholesterol-PEG5000-FITC-catalase mixture on the top of 500 μl of 60% Percoll™ PLUS column, followed by centrifugation for 20 min at 700×g at 20° C. The sperm pellet was resuspended in NCM containing 0.1 mg/ml of BSA to a total volume of 400 μl. The binding of cholesterol-PEG5000-FITC-catalase to sperm was analysed by flow cytometry and catalase activity assay. […] The catalase activity of cholesterol-PEG5000-FITC-catalase bound sperm was measured as described in Example 1. 79 units of catalase activity were measured in 2.5×10^6 sperm cells after binding with cholesterol-PEG5000-FITC-catalase, whereas no catalase activity was detected in control sperm without addition of cholesterol-PEG5000-FITC-catalase.

bovine sperm [2] = assay: Catalase activity assay of conjugate-bound sperm; type: cell-based; conditions: in 2.5×10^6 sperm cells after binding and removal of unbound conjugate
Procedure: (§1) Recovery of the cholesterol-PEG5000-FITC-catalase was determined by Coomassie staining and catalase activity assay. For the catalase activity assay, 0.5 μl of test samples and serially diluted bovine catalase (Sigma) were placed in a microtitre plate, and incubated with 50 μl of 10 ng/ml of streptavidin-HRP (Biosource) and 50 μl of TMB substrate (Invitrogen) for 5 min. The plate was read at 450 nm on an EnVision plate reader (PerkinElmer) after stopping the reaction with 50 μl of 2 M sulfuric acid. Catalase activity of the test sample was calculated from the standard curve generated with known concentrations of bovine catalase.
1.5 ml of bovine sperm in liquid extender was carefully placed on top of 4 ml of 60%_Percoll™ PLUS (GE Healthcare) column, and centrifugated for 20 min at 700×g at 20° C. […] The binding of cholesterol-PEG5000-FITC-catalase to sperm was analysed by flow cytometry and catalase activity assay. […] The catalase activity of cholesterol-PEG5000-FITC-catalase bound sperm was measured as described in Example 1. 79 units of catalase activity were measured in 2.5×10^6 sperm cells after binding with cholesterol-PEG5000-FITC-catalase, whereas no catalase activity was detected in control sperm without addition of cholesterol-PEG5000-FITC-catalase.

Jurkat cells = assay: Catalase activity assay of treated Jurkat cells; type: cell-based, human; conditions: units per 2.5×10^6 cells; incubated at 37° C. for 30 min, then centrifuged and resuspended
Procedure: as §1
Jurkat cells (ATCC, TIB-152; human T lymphocyte cell line) were cultured in RPMI-1640 media with 10% fetal calf serum. For analysis, cells were removed from culture, centrifuged at 700×g for 5 min, the culture media was removed and cells were resuspended at a concentration of 5×10^7 cells/ml in PBS. […] The Jurkat cells were analyzed by both flow cytometry and catalase activity assay.
The catalase activity of the treated Jurkat cells was measured as described in Example 1. 50 μl of 5×10^7 cells/ml of each test sample was analysed in the assay and the catalase activity contained in each of the Jurkat samples was calculated from the standard curve. […]

binding to live sperm (Hoechst 33258 negative) (bovine sperm [1]) | Molecule | rescue of H2O2-induced loss of motility (sperm) | catalase activity of bound sperm (bovine sperm [2]) [units] | catalase activity in Jurkat cells (Jurkat cells) [U]
 | N[C@@H](CCC(=O)N[C@@H](CS)C(=O)NCC(=O)O)C(=O)O [glutathione, reference compound] | able to rescue the loss of motility |  | 
approx. 10 fold over background | cholesterol-PEG5000-FITC-catalase: Bovine catalase covalently labelled with cholesterol-PEG5000-NHS-FITC; 4.0 to 5.4 cholesterol-PEG per catalase monomer (conjugate, UniProt P00432 2-527, looked up, cholesterol-PEG5000-FITC label, Bovine catalase covalently labelled with cholesterol-PEG5000-NHS-FITC; 4.0 to 5.4 cholesterol-PEG per catalase monomer) Catalase: ADNRDPASDQMKHWKEQRAAQKPDVLTTGGGNPVGDKLNSLTVGPRGPLLVQDVVFTDEMAHFDRERIPERVVHAKGAGAFGYFEVTHDITRYSKAKVFEHIGKRTPIAVRFSTVAGESGSADTVRDPRGFAVKFYTEDGNWDLVGNNTPIFFIRDALLFPSFIHSQKRNPQTHLKDPDMVWDFWSLRPESLHQVSFLFSDRGIPDGHRHMNGYGSHTFKLVNANGEAVYCKFHYKTDQGIKNLSVEDAARLAHEDPDYGLRDLFNAIATGNYPSWTLYIQVMTFSEAEIFPFNPFDLTKVWPHGDYPLIPVGKLVLNRNPVNYFAEVEQLAFDPSNMPPGIEPSPDKMLQGRLFAYPDTHRHRLGPNYLQIPVNCPYRARVANYQRDGPMCMMDNQGGAPNYYPNSFSAPEHQPSALEHRTHFSGDVQRFNSANDDNVTQVRTFYLKVLNEEQRKRLCENIAGHLKDAQLFIQKKAVKNFSDVHPEYGSRIQALLDKYNEEKPKNAVHTYVQHGSHLSAREKANL |  | 79 | 66
 | catalase: Bovine catalase (Sigma), used alone without the cholesterol-PEG5000-FITC linker; antioxidant enzyme (protein, listed as Bos taurus) MADNRDPASDQMKHWKEQRAAQKPDVLTTGGGNPVGDKLNSLTVGPRGPLLVQDVVFTDEMAHFDRERIPERVVHAKGAGAFGYFEVTHDITRYSKAKVFEHIGKRTPIAVRFSTVAGESGSADTVRDPRGFAVKFYTEDGNWDLVGNNTPIFFIRDALLFPSFIHSQKRNPQTHLKDPDMVWDFWSLRPESLHQVSFLFSDRGIPDGHRHMNGYGSHTFKLVNANGEAVYCKFHYKTDQGIKNLSVEDAARLAHEDPDYGLRDLFNAIATGNYPSWTLYIQVMTFSEAEIFPFNPFDLTKVWPHGDYPLIPVGKLVLNRNPVNYFAEVEQLAFDPSNMPPGIEPSPDKMLQGRLFAYPDTHRHRLGPNYLQIPVNCPYRARVANYQRDGPMCMMDNQGGAPNYYPNSFSAPEHQPSALEHRTHFSGDVQRFNSANDDNVTQVRTFYLKVLNEEQRKRLCENIAGHLKDAQLFIQKKAVKNFSDVHPEYGSRIQALLDKYNEEKPKNAVHTYVQHGSHLSAREKANL | able to rescue the loss of motility |  | 44
